Source: paper PMC5567289, “Characterization and structural determination of a new anti-MET function-blocking antibody with binding epitope distinct from the ligand binding domain” (Scientific Reports, 2017)
Changes are numbered by the printed parent chain.

How the values were obtained:
Details in all cases: both partners purified
[1] = molecular target: T1, MET (Homo sapiens, UniProt P08581); assay: SPR; Biacore; mean of three experiments; 107_A07 Fab purified sequentially on KappaSelect and GammaBind Plus; MET construct and who was immobilised not stated
T1 construct: MET receptor; Further methods are said to stand in the Supplementary Information file
T1 sequence (P08581 25-1390): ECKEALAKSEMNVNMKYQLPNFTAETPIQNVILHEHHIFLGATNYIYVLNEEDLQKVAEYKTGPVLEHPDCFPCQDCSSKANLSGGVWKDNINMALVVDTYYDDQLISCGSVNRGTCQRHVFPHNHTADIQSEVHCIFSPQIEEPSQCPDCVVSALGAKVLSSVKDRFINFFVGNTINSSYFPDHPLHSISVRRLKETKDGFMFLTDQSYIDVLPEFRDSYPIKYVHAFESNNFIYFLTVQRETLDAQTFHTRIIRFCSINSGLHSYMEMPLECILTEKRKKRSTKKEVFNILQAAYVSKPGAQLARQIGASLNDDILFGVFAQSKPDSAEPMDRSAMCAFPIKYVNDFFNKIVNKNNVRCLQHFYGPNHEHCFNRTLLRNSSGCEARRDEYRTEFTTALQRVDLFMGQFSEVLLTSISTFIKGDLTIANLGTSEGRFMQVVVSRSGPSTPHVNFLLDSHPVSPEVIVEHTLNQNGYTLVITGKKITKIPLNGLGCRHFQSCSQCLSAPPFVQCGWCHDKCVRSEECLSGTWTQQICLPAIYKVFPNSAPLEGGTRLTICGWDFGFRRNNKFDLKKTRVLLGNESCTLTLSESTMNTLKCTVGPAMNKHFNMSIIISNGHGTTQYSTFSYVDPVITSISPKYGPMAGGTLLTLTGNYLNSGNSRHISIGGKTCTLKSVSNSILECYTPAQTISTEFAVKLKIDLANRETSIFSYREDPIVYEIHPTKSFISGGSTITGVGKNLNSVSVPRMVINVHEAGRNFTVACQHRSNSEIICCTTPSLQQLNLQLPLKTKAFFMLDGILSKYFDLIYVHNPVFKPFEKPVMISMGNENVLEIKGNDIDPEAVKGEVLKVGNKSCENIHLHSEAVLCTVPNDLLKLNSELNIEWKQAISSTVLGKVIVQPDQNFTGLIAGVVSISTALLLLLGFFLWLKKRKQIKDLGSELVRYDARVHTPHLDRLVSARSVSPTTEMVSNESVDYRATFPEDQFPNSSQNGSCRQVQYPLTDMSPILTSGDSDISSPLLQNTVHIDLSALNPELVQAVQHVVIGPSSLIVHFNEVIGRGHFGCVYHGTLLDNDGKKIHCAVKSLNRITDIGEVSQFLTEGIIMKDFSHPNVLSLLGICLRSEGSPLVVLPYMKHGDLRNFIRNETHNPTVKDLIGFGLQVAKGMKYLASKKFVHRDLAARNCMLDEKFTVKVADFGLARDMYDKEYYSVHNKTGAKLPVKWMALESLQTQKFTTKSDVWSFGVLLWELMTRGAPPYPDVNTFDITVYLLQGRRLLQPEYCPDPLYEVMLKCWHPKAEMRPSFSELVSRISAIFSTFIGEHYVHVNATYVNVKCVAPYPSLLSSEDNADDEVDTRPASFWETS

[2] = molecular target: T2, MET567 (Homo sapiens, UniProt P08581); assay: SEC; 6 µM Fab and 4 µM MET (3:2 molar ratio) co-incubated 140 minutes at room temperature in 25 mM Tris pH 7.4, 150 mM NaCl; Superdex 200 10/300
T2 construct: MET receptor (HGF/SF receptor), recombinant truncation of the ectodomain with the SEMA and CR domains and no Ig domain; The ectodomain is cut by furin into an alpha and a beta chain; written here as one chain; also called soluble fragment of the MET ectodomain comprising the SEMA and cysteine-rich (CR) domain
T2 sequence (P08581 39-564): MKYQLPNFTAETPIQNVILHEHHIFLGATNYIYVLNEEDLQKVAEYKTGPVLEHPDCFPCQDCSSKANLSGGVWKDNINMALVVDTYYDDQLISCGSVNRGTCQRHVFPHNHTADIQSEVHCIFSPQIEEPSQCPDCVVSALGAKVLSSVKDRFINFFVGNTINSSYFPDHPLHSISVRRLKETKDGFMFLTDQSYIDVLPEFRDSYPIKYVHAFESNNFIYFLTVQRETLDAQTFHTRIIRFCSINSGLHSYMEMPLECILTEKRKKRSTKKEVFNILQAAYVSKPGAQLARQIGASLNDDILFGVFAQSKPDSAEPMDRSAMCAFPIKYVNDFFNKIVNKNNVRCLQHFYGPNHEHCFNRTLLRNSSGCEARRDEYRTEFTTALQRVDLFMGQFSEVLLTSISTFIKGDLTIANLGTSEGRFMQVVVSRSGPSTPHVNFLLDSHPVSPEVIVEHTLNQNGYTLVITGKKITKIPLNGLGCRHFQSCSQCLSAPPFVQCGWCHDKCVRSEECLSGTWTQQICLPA

[3] = molecular target: T3, MET928 (UniProt P08581); assay: SPR; CM5 chip coated with MET928; 7A2 scFv (134 nM, 268 nM), NK1 (238 nM, 476 nM) or a mixture (134 nM 7A2 scFv, 238 nM NK1); 60 s injections
T3 construct: MET receptor (HGF/SF receptor), recombinant ectodomain with the SEMA, CR and Ig1-4 domains; The ectodomain is cut by furin into an alpha and a beta chain; written here as one chain; also called MET extracellular domain (MET928); His-tagged MET928; source: recombinant
T3 sequence (P08581 25-932): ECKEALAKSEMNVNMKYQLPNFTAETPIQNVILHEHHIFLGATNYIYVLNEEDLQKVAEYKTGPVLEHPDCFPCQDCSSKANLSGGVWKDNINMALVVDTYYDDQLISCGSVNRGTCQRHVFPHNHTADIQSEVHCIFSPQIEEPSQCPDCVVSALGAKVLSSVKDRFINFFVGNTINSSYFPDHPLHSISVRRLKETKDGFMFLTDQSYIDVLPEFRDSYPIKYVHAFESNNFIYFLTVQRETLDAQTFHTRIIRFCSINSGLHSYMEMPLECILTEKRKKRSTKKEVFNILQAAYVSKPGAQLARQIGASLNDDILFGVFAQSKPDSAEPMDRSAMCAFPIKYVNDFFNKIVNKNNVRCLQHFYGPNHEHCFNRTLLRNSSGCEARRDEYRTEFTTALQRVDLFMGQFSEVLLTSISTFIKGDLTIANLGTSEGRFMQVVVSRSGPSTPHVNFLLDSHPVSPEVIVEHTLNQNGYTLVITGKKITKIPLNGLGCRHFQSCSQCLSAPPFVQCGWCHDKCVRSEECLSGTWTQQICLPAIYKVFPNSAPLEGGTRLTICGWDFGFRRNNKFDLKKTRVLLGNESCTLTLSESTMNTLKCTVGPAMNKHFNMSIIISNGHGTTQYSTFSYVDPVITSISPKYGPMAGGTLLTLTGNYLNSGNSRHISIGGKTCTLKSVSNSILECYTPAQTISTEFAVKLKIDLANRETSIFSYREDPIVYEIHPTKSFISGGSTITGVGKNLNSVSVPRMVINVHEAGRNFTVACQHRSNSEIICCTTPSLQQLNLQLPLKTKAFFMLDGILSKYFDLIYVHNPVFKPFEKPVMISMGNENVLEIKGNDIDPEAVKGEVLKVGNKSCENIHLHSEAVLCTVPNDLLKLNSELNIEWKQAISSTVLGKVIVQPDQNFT

[4] = molecular target: T4, MET741 (Homo sapiens, UniProt P08581); assay: SEC; 6 µM Fab and 4 µM MET (3:2 molar ratio) co-incubated 140 minutes at room temperature in 25 mM Tris pH 7.4, 150 mM NaCl; Superdex 200 10/300
T4 construct: MET receptor (HGF/SF receptor), recombinant truncation of the ectodomain with the SEMA, CR and Ig1-2 domains; The ectodomain is cut by furin into an alpha and a beta chain; written here as one chain; also called soluble MET741; his-tagged MET741; source: CHO Lec3.2.8.1 cells, purified (NiNTA, cation exchange MonoS)
T4 sequence (P08581 25-741): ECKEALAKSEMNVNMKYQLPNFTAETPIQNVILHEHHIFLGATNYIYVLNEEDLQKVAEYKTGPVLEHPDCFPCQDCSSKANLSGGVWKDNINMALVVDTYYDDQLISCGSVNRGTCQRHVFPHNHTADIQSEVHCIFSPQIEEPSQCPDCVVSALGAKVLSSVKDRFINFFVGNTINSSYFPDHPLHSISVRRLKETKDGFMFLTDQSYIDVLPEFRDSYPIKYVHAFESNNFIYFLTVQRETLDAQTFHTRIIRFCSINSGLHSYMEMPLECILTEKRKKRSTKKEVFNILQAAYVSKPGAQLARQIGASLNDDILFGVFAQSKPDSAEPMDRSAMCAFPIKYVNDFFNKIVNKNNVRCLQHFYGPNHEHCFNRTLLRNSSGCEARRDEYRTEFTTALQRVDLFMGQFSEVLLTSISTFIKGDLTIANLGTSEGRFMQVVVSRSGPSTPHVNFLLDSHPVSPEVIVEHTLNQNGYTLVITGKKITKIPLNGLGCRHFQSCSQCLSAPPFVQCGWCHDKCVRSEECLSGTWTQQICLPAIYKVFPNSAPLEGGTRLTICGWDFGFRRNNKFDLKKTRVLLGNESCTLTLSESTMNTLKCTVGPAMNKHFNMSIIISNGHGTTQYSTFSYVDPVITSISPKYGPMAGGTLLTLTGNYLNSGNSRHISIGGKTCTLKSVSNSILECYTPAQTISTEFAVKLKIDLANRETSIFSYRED

[5] = molecular target: T3, MET928; assay: as above

B1: 107_A07 Fab (Fab, V domains shown)
VH: QMQLVQSGAEVKKPGAPVKVSCKVSGYTFTDYYMHWVQQAPGKGLEWMGLVDPEDGETIYAEKFQGRVTITADTSTDTAYMELSSLRSEDTAVYYCATDATTPYWGMMWWGQGTLVTVSS
VL: DIQMIQSPSSLSASVGDRVTITCQASQDISNYLNWYQQKPGRAPKVLIYDASNLETGVPSRFSGSGSGTEFTLTISNLRPDDFATYYCQQGDSFPLTFGGGTKVEIK
notes: Fab heavy chain is chain H of the deposited structure PDB 5LSP; Fab light chain is chain L of the deposited structure PDB 5LSP
[1]
  Kd: 3.2 nM
[2]
  binding result: no binding (tested: 6 µM Fab, 4 µM MET567)

B2: 7A2 scFv (scFv, V domains shown)
VH: B1 VH with W105Y, M108D, W109V
VL: B1 VL with I5T
notes: VH of 7A2: as the VH of m1 (PDB 5LSP chain H) except in CDR3, where 7A2 has Y105 instead of W105; VL of 7A2: as the VL of m1 (PDB 5LSP chain L); also called clone 7A2; source: Pichia pastoris, purified (Ni-NTA, gel filtration)
[3]
  binding result: binds

B3: 7A2 Fab (Fab, V domains shown)
VH: B1 VH with W105Y, M108D, W109V
VL: B1 VL with I5T
notes: as the light chain of m1 (PDB 5LSP chain L): the matured clones came from VH CDR3 mutagenesis and VL mutants were not identified; also called Fab 7A2; Fab-formatted 7A2
[4]
  binding result: binds
[5]
  binding result: binds
[2]
  binding result: no binding (tested: 6 µM Fab, 4 µM MET567)
